Here are results for one protein from publication PMC6751202, “An aggregon in conductin/axin2 regulates Wnt/β-catenin signaling and holds potential for cancer therapy” (Nature Communications, 2019).

The series deals with the molecule itself. Briefly: native gel or EMSA; recombinant GST-RGS Cdt and GST-RGS Cdt QV-PS purified from bacteria; PAGE under non-denaturing conditions, Western blot. For orientation: A gel shift assay detects complexes by their altered migration in electrophoresis.

B1: GST-RGS Cdt (domain or fragment, mouse, UniProt O88566 67-208, looked up)
chain: GRASPDSPLTRWTKSLHSLLGDQDGAYLFRTFLEREKCVDTLDFWFACNGFRQMNLKDTKTLRVAKAIYKRYIENNSVVSKQLKPATKTYIRDGIKKQQIGSVMFDQAQTEIQAVMEENAYQVFLTSDIYLEYVRSGGENTA
notes: RGS domain of mouse conductin/axin2, amino acids 67-208; Cloned into pGEX-6P-1, which as far as I know puts GST at the N-terminus; GST itself can dimerise; also called isolated conductin RGS domain; recombinant GST-RGS Cdt; source: Rosetta (DE3) bacteria, purified (glutathione beads, eluted with free glutathione)
Turning to B1, the binding result is given as “binds”.
